Measurements as given in publication PMC4081096, “GtrS and GltR form a two-component system: the central role of 2-ketogluconate in the expression of exotoxin A and glucose catabolic enzymes in Pseudomonas aeruginosa” (Nucleic Acids Research, 2014).

Experiments:
[1] = target: T1, GtrS (Pseudomonas aeruginosa, UniProt Q9HZ47); assay: isothermal titration calorimetry with purified recombinant GtrS-LBD; 2-KG also accelerates autophosphorylation of full-length GtrS in membranes; assay type: binding
T1 sequence (Q9HZ47 30-197): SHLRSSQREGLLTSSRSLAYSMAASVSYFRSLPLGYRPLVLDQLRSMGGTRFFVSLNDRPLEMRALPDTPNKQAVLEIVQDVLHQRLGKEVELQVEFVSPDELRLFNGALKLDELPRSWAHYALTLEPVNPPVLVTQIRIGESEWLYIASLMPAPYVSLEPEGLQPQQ

[2] = target: T1, GtrS; assay: isothermal titration calorimetry with purified recombinant GtrS-LBD; assay type: binding
[3] = target: T2, GltR (Pseudomonas aeruginosa PAO1) (UniProt G3XCY6); assay: EMSA; conditions: EMSA: 2 nM 32P-DNA, 50 mM Tris-HCl pH 7.5, 10 mM NaCl, 0.5 M Mg acetate (so in the source), 0.1 mM EDTA, 1 mM DTT, 5% glycerol, 20 ug/ml poly(dI-dC), 200 ug/ml BSA …
T2 sequence: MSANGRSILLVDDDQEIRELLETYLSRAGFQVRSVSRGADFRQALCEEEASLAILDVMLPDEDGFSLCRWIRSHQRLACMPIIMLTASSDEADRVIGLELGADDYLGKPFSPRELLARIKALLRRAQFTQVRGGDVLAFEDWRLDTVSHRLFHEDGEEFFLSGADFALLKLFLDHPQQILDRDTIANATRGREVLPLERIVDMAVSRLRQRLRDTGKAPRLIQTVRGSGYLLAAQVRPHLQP

[4] = tested on: GltR (Pseudomonas aeruginosa PAO1); assay: EMSA; conditions: EMSA: 2 nM 32P-DNA, 50 mM Tris-HCl pH 7.5, 10 mM NaCl, 0.5 M Mg acetate (so in the source), 0.1 mM EDTA, 1 mM DTT, 5% glycerol, 20 ug/ml poly(dI-dC), 200 ug/ml BSA …

Compound	K half [4] [nM]	other results
O=C(O)C(=O)[C@@H](O)[C@H](O)[C@H](O)CO [2-KG, 2-ketogluconate]	–	Kd [1]: 4.95 ± 0.8 µM
O=C(O)[C@H](O)[C@@H](O)[C@H](O)[C@H](O)COP(=O)(O)O [6PG, 6-phosphogluconate]	–	Kd [2]: 98 ± 33 µM
AGATCTTGCAGCTTTACCGAGAGCCTCAACGGCTGGCGCTGATTCTGATAGGTCGATATCCGCCGGCGCTTGGCTGGCGGCTGTCTCTCCGGCAACATCTGCCGACCGTCCCGCCCTGGCGCGGGGCATTGCGGTTCAACGACGATGAATAACGACAACAAGAGAAGCGCCGGCGGCCTCGGCCTGGTCGGCGATATCGCTGCAG (double strand) [Pglk promoter fragment]	–	K half [3]: 1000 nM
Pedd/gap-1 promoter fragment	1000	–
Pglk promoter fragment	1000	–
PoprB promoter fragment	1000	–
PtoxA promoter fragment	1000	–
